Measured values as given in the nanobody polyreactivity screen of Harvey et al. (2022).

Experiment: yeast display, Sf9 membrane polyspecificity reagent, FACS + sequencing; frameworks hold sequencing errors
Outline: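 Using colony PCR, genes from sorted yeast display clones were amplified, then sequenced on MiSeq at 2 × 250 and filtered by CDR length. The clones had been stained with 10% biotinylated, detergent-solubilized Sf9 membrane reagent for 1 hour at 4 °C and sorted by FACS into low and high (top ~1%) gates on anti-HA and streptavidin fluorescence. Polyreactivity labels come from the gate of origin.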

| Sequence | polyreactivity (PSR sort gate) |
| --- | --- |
| QVQLEESGGGLLQAGGSLRLSCAATGSTFVTYAMGWYRQAPGKERELVAAISSGGGNTYYADSVKGRFTISRDNAMNSVYLQMHSLKPEDTAVYLCAADNPRSEYDYWGQGTQVTVSA | high polyreactivity |
| QVQLVESGGGLVQAGGSLRLSCAASGRTFGSNAMGWYRQAPGKERELVANIDGGGGTYADSVKGRFTISRDNAKNTVYLQMNSLKPEDTAVYYCATRWSGYDMDYWGQGTQVTVSS | low polyreactivity |
| QVQLLESGGGLVQAGGSLRLSCAASGRTFEYYAMGWYRQAPGKERELDAAITSGGITYYADSVKGRFTISRDNAKITVYLQMNSLKPEDSAVYYCAAKGWYFGYGRYGYWGQGTQVTVSS | high polyreactivity |
| QVQLVESGGGLVQAGGSLRLSCAASGFIFYPYAMGWYRQAPGKERELVAVITSGGRTYYADSVKGRFTISRDNAKNTVYLQMNSLKPEDTAVYYCAARYGRIQWKANWPEYGYWGQGTQVTVSS | low polyreactivity |
| QVQLVESGGGLVQAGSSLRLSCAASGRTFTGNAMGRYRQAPGKERELVADISSDGSTNYADSVKGRFTISRDNAKNTVYLQMNSLKPEDTAVYYCAADPFWTYYIDYDYWGQGTQVTVSS | low polyreactivity |
| QVQLVESGGGLVQAGGSLRLSCAASGSTFNFNAMGWYRQAPGKERELVAAISFSGGSTYYADSVKGRFTISRDNAKNTVYLQMNSLKPEDTAVYYCRPYSRGYGYWGQGTQVTVSS | high polyreactivity |
| QVQLVESGGGLVQAGGSLRLSCAASGFTFSYNTMGWYREAPGKERELVAAISRSGGRTFYADSVKGRFTISRDNAKNTVYLQMNSLKPEDTAVYYCARPWFDYWGQGTQVTVSS | high polyreactivity |
| QVQLVESGGGLVQAGGSLRLSCAASGSIFLVYAMGWYRQAPGKERELVAAIRISDSTNYADSVKGRFTISRDNAKNTVYLQMNSLKPEDTAVYYCNVDTVGLGGEKGGYYWGQGTQVTVSS | low polyreactivity |
| QVQLVESVGGLVQAGGSLRLICAASGIIFKFNAMGWYRQAPGKEREFVAAIRWRGGSTYYADSVKGRFTISRDNAKNTVYLQMNSLKPEDTAVYYCAATYRTGYYYWGQGTQVTVSS | high polyreactivity |
| QVQLVESGGGLDQAGGRLRLSCAASGSTFLLYAMGWYRQAPGKERELVAAIDTGDSTNYADSVKGRFTISRDNAKNTVYLQMNSLKREDTAVYYCNADSFPALNKRGYDYWGQGTQVTVSS | low polyreactivity |
| QVQLVESGGGLVQAGGSLRLSCAASGRTFGRYAMGWYRQAPGKERELVAAISTSGGSTYYADSVKGRFTISRDNAKNTVYLQMNSLKPEDTAVYYCAATIGRRSYNQMYYWGQGTQVTVSS | high polyreactivity |
| QVQLVESGGGLVQAGGSLRLSCAASGSIFFFYVMGWYRPAPGKERELVAAITYSGGSTFYADSVKGRFTISRDNAKNTVYLQMNSLKPEDTAVYYCAADYGQWTPLDPYNHWGQGTQVTVSS | low polyreactivity |
| QVQLQESGGGLVQAGGSLRLSCAASGYNSHADEMGWYRQAPGKEHELVASISNGGSTNYADSVKGRFTISRDNANNTVYLQMNSLKSEDTAVYYCADWTGEVDIHYYWGQGTQVTVSS | low polyreactivity |
| QVQLVESGGGLVQAGGSLRLSCAASGFIFPWNAMGWYRQAPGKERELVAAISFSGGSTYYADSVKGRFTISRDNAKNTVYLQMNSLKPEDTAVYYCAKRTWDLRRTRHYYWGQGTQVTVSS | low polyreactivity |
| QVQLVDSGGGLVQAGGSLRLSCAASGRTSIWNAMGWYRQAPGKERELVASISWSGGSTYYADSVKGRFTISRDNAKNTVYLQMNSLKPEDTAVYYCAKTGYFLVFNEHLHKKRYDSWGQGTQVTVSS | low polyreactivity |
| QVQLVESGGGLVQAGGSLRLSCAASGRIFRFYAMGWYRPAPGKERELVAAISSRGGSTYYADSVKGRFTISRDNAKNTDYFQMNSLKPEDTAVYYCNAYGSTSQMDYWGQGTQVTVSS | high polyreactivity |
| QVQLVESGGGLVQAGGSLRIRCAASGRIFDTYAMGWYRQAPGKEREFVATISWDSASTYYADSVKGRFTISRDNAKNTVYLQMNSLKPEDTAVDYCAAGGSSSWAFNYWGQGTQLTVSS | low polyreactivity |
| QVQLVESGGGLVQAGGSLRLSCAPSGRIIRKNAMGWSRQAPGKERELVAAITSVGSTYYADSVKGRFTISRDNAMNTVYLQMNSLKPEDTAVYYCNALQWSYNRGGYWGQGTQVTVSS | high polyreactivity |
| QVQLVESGGGLVQAGGSLRLSCAASGSIFGFYAMGWYRQAPGKERELVAAITYSGGSTYADSVKGRFTISRDNAKNTVYLQMNSLKPEDTAVYYCAKDAELDITDAFYYWGQGTQVTVSS | low polyreactivity |
| QVQLVESGGGLVQAGGSLSLSCAASGRILFRYGMGWYRQAPGKERELVARISWSGGNTHYADSVKGRFTISRDNAKNTVYLQMNSLKPEDTAVYYCNAYYTYWYPRYDYWGQGTQVTVSS | low polyreactivity |
| QVQLVEAVGGLVQAGGSLRLSCAASGNTYYGNAMGWYRQAPGKEREFVAAITIRTGSTYYADSVKGRFTISRDNAKNTVYLQMNSLKPDDTAVYYCAADAYWRWNWYDYWGQGTQVTVSS | high polyreactivity |

| Sequence | polyreactivity (PSR sort gate) |
| --- | --- |
| QVQLVESGGGLVQAGGSLRLSCAASGYIFRWYAMGWYRQAPGKERELVARITNGARTYYADSVKGRFTISRDNAKNTVYLQMNSLKPEDTAVYYCAATVPPTYRRYYYWGQGTQVTVSS | high polyreactivity |
| QVQLVESGGGLVQAGGSLRLSCAASGFIFARNAMGWYRQAPGKERELVARITKRGGSTFYADSVKGRFTISRDNAKNTVYLQMNSLKPEDPAVYYCNADGYHGHVEGDYWGQGTQVTVSS | high polyreactivity |
| QVQLVESGGGLVQAGGSLRLSCAASGRIFSYYAMGWYRQAPGKERELVASITWSGGSTYYADSVKGRFTISRDYAKNTVYLQMNRLKPEDTAVYYCNTAVLAPYDSGYWGQGTQVTVSS | low polyreactivity |
| QVQLVESGGGLVQAGGSLRLSCAASGSTFYNNAMGWYRQAPGKERELVATISASSTSTYYADSVKGRFTISRDNAKNTVYLQMNSLKPEDTAVYYCAKDYVHGSTYGYYWYGYDYWGQGTQVTVSS | low polyreactivity |
| QVQLVESGGGLVQAGGSLRLSCAASGSTFASYAMGWYRQAPGKEREFVAAITRSGTSTYYADSVQGRFTISRDNAKNTVYLQMNSLKPEDTAVYYCNATRRTVGFGYWGQGTQVPVSS | high polyreactivity |
| QVQLVESGGGLVQAGGSLRLSCAASGRNFYVYAMGWYRQAPGKERELVATISRGGSTTYADSVKGRFTISRDNAKNTVYLQMNSLKPEDTAVYYCATELLGGRRTVAYYWGQGTQVTVSS | low polyreactivity |
| QVQLEETGGGLVQAGGSLPLSCAASGRTFRFYTMGWYRQAPGKERELVAVISNGGSTNYADSVKGRFTISRDNANTTVYLQMNSLKPEDTAVYDCAAGWVWSGNDYYYWGQGTQVTVSS | low polyreactivity |
| QVQLLESGAGLVHAGGSLRISCAASGRTFGLNAMAWNPPAHGKETELVAAISSSGGSTYYADSVKGRFTISRDNPKNTVYLQMNSLTPEDTAVYYCAKVLNRYGTAYYYWGQGTQVTVSS | high polyreactivity |
| QVQLVESGGGLVQAGGSLRLSCAASGRIFYVYAMGRYRQAPGKERELVAAINWSGDSTYYADSVKGRFTISRDNAKNTVYLQLNSLKPEDTAVYYCARARPTGYNYWGQGTQVTVSS | high polyreactivity |
| QVQLVESGGCLVQAGGSLRLSCAASGSTFAEYVMGWDRQAPGKERELVAAISSGTSTYYADSVKGRFTISRDNAKNTVYLQMNSLKPEDTAVYYCNADLYHNWYKPEYDYCGQGTQVTVSS | low polyreactivity |
| QVQLVESGGGLVQAGGSLRLSCAASGSIFHNYDMGCYRQAPGKERELVADISRGGDTNYADSVKGRFTISRDNAKNTVYLQMNSLKPEDTAVYYCSADSADPTEYDYWGQGTQVTVSS | low polyreactivity |
| QVQHVESGGGLVQAGGSLRLSCSASGSTFGLYAMGWSRQAPGKETELVAVISWRGGSTYYADSVKGRFTISRDNAKNTVYLQMNSLKPEDTAVYYCAAYSRYPYVRYDYWGQGTQVTVSS | low polyreactivity |
| QVQLVESGGGLVQAGGSLRLSCAASGRTIYRNAMGWYRQAPGKERELVAAITSGGSTNYADSVKGRFTLSRDNAKNTGYLQMNSLKPEDTAVYYCAATRGRYLWYYRYDYWGQGTQVTVSS | high polyreactivity |
| QVQLVESGGGLVQAGGSLRLSCAASGLIFGVNDMGWYRQAPGKERELVAAITSRGGSTYYADSVKGRFTISRDNAKNTVYLQMNSLKPEDTAVYYCAAKYAYYEPYSWRPQRTYNYWGQGTQVTVSS | high polyreactivity |
| QVQLVETAGGLVQAGGTLRLSCPASGFTIFDNAMGWSRHPPGQERELVAVITKRGGSTYYADSVKGRFTISRYNAKNTVYLQMNILKPEDTAVYYCAADSRFSNFGVTQVTSDYWGQGTQVTVSS | low polyreactivity |
| QVQLVESGGGLVQAGGSLRLSCAASGRTFGVNAMGWYRQAPGKERELVAAISRSGGSTYYADSVKGRFTISRDNAKNTVYLQMNSLKPEDTAVYYCAKSYFGNHLTGFGYWGQGTQVTVSS | low polyreactivity |
| QVQLVESGGRLVQAGGSLRLSCHASGIIFTAYAMGWYRPAPGKERELVAAITWSGGSTYYADSVKGRFTISRDNAKNTVYLQMNSLKPEDTAVYYCNGERPSFPFNYWGQGTQVTVSS | low polyreactivity |
| QVQLVESGGGLVQAGGSLRLSCAASGYTFKYNAMGWYRQAPGKERELVAAISSRGDRTYYADSVKGRFTISRDNAKNTVYLQMNSLKPEDTVVYYCNKVARPRSRNDSWGQGTQVTVSS | high polyreactivity |
| QVQLVESGGGLVQAGGSLRLSCAASGSIFDPYAMGWYRQAPGKERELVAAITSDGSTNYADSVKGRFTISRDNAKNTVYLQMNSLKPEDTAVYYCAARYNLGEYDYWGQGTQVTVSS | low polyreactivity |
| QVQLEESGGGLVQAGGSLRLSCAASGSIFRKYAMVSYRQAPGKERELVAAIRSSGGSTYYADSVKGRFTISRDNANNTVYLQMNSLKPEDTAVYYCAARYYRPSRYDYWGQGTQVTVSS | high polyreactivity |
